From publication PMC6005765 (Bioorganic & medicinal chemistry letters, 2018)
Starred links: 1 amine or outer side, 2 acyl side, 3 side chain; linkers in the order of their positions; H or OH if unused. Non-standard residues stand in square brackets, D forms with d. Residues, ends and D or L forms follow the SMILES beside them. No end group written: not given here. Phe(2-(4-CF3-phenyl)) = O=C([C@H](Cc1ccccc1-c1ccc(C(F)(F)F)cc1)N[*:1])[*:2]; Phe(2-(2-methyl-1-propenyl)) = CC(C)=Cc1ccccc1C[C@H](N[*:1])C(=O)[*:2]; Phe(2-(4-MeO-phenyl)) = COc1ccc(-c2ccccc2C[C@H](N[*:1])C(=O)[*:2])cc1; Phe(2-(4-Cl-phenyl)) = O=C([C@H](Cc1ccccc1-c1ccc(Cl)cc1)N[*:1])[*:2]; Phe(2-(4-F-phenyl)) = O=C([C@H](Cc1ccccc1-c1ccc(F)cc1)N[*:1])[*:2]; Phe(3-(3-thienyl)) = O=C([C@H](Cc1cccc(-c2ccsc2)c1)N[*:1])[*:2]; Phe(4-(3-thienyl)) = O=C([C@H](Cc1ccc(-c2ccsc2)cc1)N[*:1])[*:2]; Phe(2-(3-thienyl)) = O=C([C@H](Cc1ccccc1-c1ccsc1)N[*:1])[*:2]; Phe(3-vinyl) = C=Cc1cccc(C[C@H](N[*:1])C(=O)[*:2])c1; Phe(4-vinyl) = C=Cc1ccc(C[C@H](N[*:1])C(=O)[*:2])cc1; Phe(2-vinyl) = C=Cc1ccccc1C[C@H](N[*:1])C(=O)[*:2]; Phe(3-Ph) = N[C@@H](Cc1cccc(-c2ccccc2)c1)C(=O)O; Phe(2-Ph) = N[C@@H](Cc1ccccc1-c1ccccc1)C(=O)O; Bip = N[C@@H](Cc1ccc(-c2ccccc2)cc1)C(=O)O; Dmt = Cc1cc(O)cc(C)c1C[C@H](N)C(=O)O; dNMeA = CN[C@H](C)C(=O)O

B1: Dmt-D-Arg-Phe(2-phenyl)-Gly-NH2 (peptide)
peptide: [Dmt][dR][Phe(2-Ph)]G-NH2
modifications: N-terminus assumed
SMILES: Cc1cc(O)cc(C)c1C[C@H](N)C(=O)N[C@H](CCCNC(=N)N)C(=O)N[C@@H](Cc1ccccc1-c1ccccc1)C(=O)NCC(N)=O
B2: Dmt-D-Arg-Phe(4-(3-thienyl))-Gly-NH2 (peptide)
peptide: [Dmt][dR][Phe(4-(3-thienyl))]G-NH2
modifications: N-terminus assumed
SMILES: Cc1cc(O)cc(C)c1C[C@H](N)C(=O)N[C@H](CCCNC(=N)N)C(=O)N[C@@H](Cc1ccc(-c2ccsc2)cc1)C(=O)NCC(N)=O
B3: Dmt-D-Arg-Phe(3-(3-thienyl))-Gly-NH2 (peptide)
peptide: [Dmt][dR][Phe(3-(3-thienyl))]G-NH2
modifications: N-terminus assumed
SMILES: Cc1cc(O)cc(C)c1C[C@H](N)C(=O)N[C@H](CCCNC(=N)N)C(=O)N[C@@H](Cc1cccc(-c2ccsc2)c1)C(=O)NCC(N)=O
B4: Dmt-D-Arg-Phe(2-(3-thienyl))-Gly-NH2 (peptide)
peptide: [Dmt][dR][Phe(2-(3-thienyl))]G-NH2
modifications: N-terminus assumed
SMILES: Cc1cc(O)cc(C)c1C[C@H](N)C(=O)N[C@H](CCCNC(=N)N)C(=O)N[C@@H](Cc1ccccc1-c1ccsc1)C(=O)NCC(N)=O
B5: Dmt-D-Arg-Phe(4-vinyl)-Gly-NH2 (peptide)
peptide: [Dmt][dR][Phe(4-vinyl)]G-NH2
modifications: N-terminus assumed
SMILES: C=Cc1ccc(C[C@H](NC(=O)[C@@H](CCCNC(=N)N)NC(=O)[C@@H](N)Cc2c(C)cc(O)cc2C)C(=O)NCC(N)=O)cc1
B6: Dmt-D-Arg-Phe(3-vinyl)-Gly-NH2 (peptide)
peptide: [Dmt][dR][Phe(3-vinyl)]G-NH2
modifications: N-terminus assumed
SMILES: C=Cc1cccc(C[C@H](NC(=O)[C@@H](CCCNC(=N)N)NC(=O)[C@@H](N)Cc2c(C)cc(O)cc2C)C(=O)NCC(N)=O)c1
B7: Dmt-D-Arg-Phe(2-vinyl)-Gly-NH2 (peptide)
peptide: [Dmt][dR][Phe(2-vinyl)]G-NH2
modifications: N-terminus assumed
SMILES: C=Cc1ccccc1C[C@H](NC(=O)[C@@H](CCCNC(=N)N)NC(=O)[C@@H](N)Cc1c(C)cc(O)cc1C)C(=O)NCC(N)=O
B8: Dmt-D-Arg-Phe(2-(4-MeO-phenyl))-Gly-NH2 (peptide)
peptide: [Dmt][dR][Phe(2-(4-MeO-phenyl))]G-NH2
modifications: N-terminus assumed
SMILES: COc1ccc(-c2ccccc2C[C@H](NC(=O)[C@@H](CCCNC(=N)N)NC(=O)[C@@H](N)Cc2c(C)cc(O)cc2C)C(=O)NCC(N)=O)cc1
B9: Dmt-D-Arg-Phe(2-(4-CF3-phenyl))-Gly-NH2 (peptide)
peptide: [Dmt][dR][Phe(2-(4-CF3-phenyl))]G-NH2
modifications: N-terminus assumed
SMILES: Cc1cc(O)cc(C)c1C[C@H](N)C(=O)N[C@H](CCCNC(=N)N)C(=O)N[C@@H](Cc1ccccc1-c1ccc(C(F)(F)F)cc1)C(=O)NCC(N)=O
B10: Dmt-D-Arg-Phe(2-(4-F-phenyl))-Gly-NH2 (peptide)
peptide: [Dmt][dR][Phe(2-(4-F-phenyl))]G-NH2
modifications: N-terminus assumed
SMILES: Cc1cc(O)cc(C)c1C[C@H](N)C(=O)N[C@H](CCCNC(=N)N)C(=O)N[C@@H](Cc1ccccc1-c1ccc(F)cc1)C(=O)NCC(N)=O
B11: Dmt-D-Arg-Phe(2-(4-Cl-phenyl))-Gly-NH2 (peptide)
peptide: [Dmt][dR][Phe(2-(4-Cl-phenyl))]G-NH2
modifications: N-terminus assumed
SMILES: Cc1cc(O)cc(C)c1C[C@H](N)C(=O)N[C@H](CCCNC(=N)N)C(=O)N[C@@H](Cc1ccccc1-c1ccc(Cl)cc1)C(=O)NCC(N)=O
B12: Dmt-D-Arg-Phe(2-(2-methyl-1-propenyl)-Gly-NH2 (peptide)
peptide: [Dmt][dR][Phe(2-(2-methyl-1-propenyl))]G-NH2
modifications: N-terminus assumed
SMILES: CC(C)=Cc1ccccc1C[C@H](NC(=O)[C@@H](CCCNC(=N)N)NC(=O)[C@@H](N)Cc1c(C)cc(O)cc1C)C(=O)NCC(N)=O
B13: Dmt-D-Ala-Phe(2-phenyl)-Gly-NH2 (peptide)
peptide: [Dmt][dA][Phe(2-Ph)]G-NH2
modifications: N-terminus assumed
SMILES: Cc1cc(O)cc(C)c1C[C@H](N)C(=O)N[C@H](C)C(=O)N[C@@H](Cc1ccccc1-c1ccccc1)C(=O)NCC(N)=O
B14: Dmt-D-Ala-Phe(2-vinyl)-Gly-NH2 (peptide)
peptide: [Dmt][dA][Phe(2-vinyl)]G-NH2
modifications: N-terminus assumed
SMILES: C=Cc1ccccc1C[C@H](NC(=O)[C@@H](C)NC(=O)[C@@H](N)Cc1c(C)cc(O)cc1C)C(=O)NCC(N)=O
B15: Dmt-N-Me-D-Ala-Phe(2-vinyl)-Gly-NH2 (peptide)
peptide: [Dmt][dNMeA][Phe(2-vinyl)]G-NH2
modifications: N-terminus assumed
SMILES: C=Cc1ccccc1C[C@H](NC(=O)[C@@H](C)N(C)C(=O)[C@@H](N)Cc1c(C)cc(O)cc1C)C(=O)NCC(N)=O
B16: Dmt-D-Arg-Phe-Gly-NH2 (peptide)
peptide: [Dmt][dR]FG-NH2
modifications: N-terminus assumed
SMILES: Cc1cc(O)cc(C)c1C[C@H](N)C(=O)N[C@H](CCCNC(=N)N)C(=O)N[C@@H](Cc1ccccc1)C(=O)NCC(N)=O
B17: Dmt-D-Arg-Phe(4-phenyl)-Gly-NH2 (peptide)
peptide: [Dmt][dR][Bip]G-NH2
modifications: N-terminus assumed
SMILES: Cc1cc(O)cc(C)c1C[C@H](N)C(=O)N[C@H](CCCNC(=N)N)C(=O)N[C@@H](Cc1ccc(-c2ccccc2)cc1)C(=O)NCC(N)=O
B18: Dmt-D-Arg-Phe(3-phenyl)-Gly-NH2 (peptide)
peptide: [Dmt][dR][Phe(3-Ph)]G-NH2
modifications: N-terminus assumed
SMILES: Cc1cc(O)cc(C)c1C[C@H](N)C(=O)N[C@H](CCCNC(=N)N)C(=O)N[C@@H](Cc1cccc(-c2ccccc2)c1)C(=O)NCC(N)=O

Legend:
[1] = target: μ opioid receptor (UniProt P35372)
[2] = target: δ opioid receptor (DOP) (Homo sapiens, UniProt P41143); format: binding
[3] = test system: guinea pig ileum (GPI), MOP; details: for Functional character in GPI assay: in vitro
[4] = target: μ opioid receptor (MOP) (Homo sapiens, UniProt P35372); format: binding; details: for MOP IC50: [125I]-DAMGO competition, HEK293 membranes
μ opioid receptor (MOP), sequence (P35372 whole entry, species assumed): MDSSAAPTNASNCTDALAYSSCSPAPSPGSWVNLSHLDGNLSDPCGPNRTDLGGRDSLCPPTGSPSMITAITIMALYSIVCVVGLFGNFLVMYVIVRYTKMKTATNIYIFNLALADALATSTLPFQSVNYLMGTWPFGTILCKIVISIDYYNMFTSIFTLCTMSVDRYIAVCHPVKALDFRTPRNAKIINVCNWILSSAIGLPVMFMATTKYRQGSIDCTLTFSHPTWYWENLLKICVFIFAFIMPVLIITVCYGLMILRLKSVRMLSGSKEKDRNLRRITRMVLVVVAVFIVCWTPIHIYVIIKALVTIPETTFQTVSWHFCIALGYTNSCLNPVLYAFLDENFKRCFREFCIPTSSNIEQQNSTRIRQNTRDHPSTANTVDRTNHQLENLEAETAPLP

[5] = target: δ opioid receptor (UniProt P41143)
[6] = target: δ opioid receptor (UniProt P41143); test: radioligand binding
[7] = target: μ opioid receptor (UniProt P35372); test: radioligand binding
[8] = target: δ opioid receptor (UniProt P41143); remark: listed apart in the source

Molecule | IC50 in the guinea pig ileum (GPI) assay [1] [nM] | IC50 [6] [nM] | IC50 [7] [nM] | IC50 in the mouse vas deferens (MVD) assay [8] [nM] | further results
Deltorphin II (peptide) | 854 |  |  |  | 
COc1ccc(-c2ccccc2C[C@H](NC(=O)[C@@H](CCCNC(=N)N)NC(=O)[C@@H](N)Cc2c(C)cc(O)cc2C)C(=O)NCC(N)=O)cc1 [Compound 10, Dmt-D-Arg-Phe(2-(4-MeO-phenyl))-Gly-NH2] |  |  |  |  | IC50 [2]: 70.2 ± 27.2 nM; IC50 ([3]; read-out: IC50 (GPI), agonist potency): 0.901 ± 0.224 nM; IC50 [4]: 0.47 ± 0.24 nM; Selectivity IC50δ/IC50μ ([4]; ratio DOP IC50 / MOP IC50): 149
C=Cc1ccccc1C[C@H](NC(=O)[C@@H](CCCNC(=N)N)NC(=O)[C@@H](N)Cc1c(C)cc(O)cc1C)C(=O)NCC(N)=O [Compound 9, Dmt-D-Arg-Phe(2-vinyl)-Gly-NH2] |  |  |  |  | MOP IC50 [4]: subnanomolar binding affinity
DAMGO (peptide) | 28.3 |  |  |  | EPAC DOP EC50 (EPAC cAMP BRET-based biosensor assay) [5]: 49 nM
Cc1cc(O)cc(C)c1C[C@H](N)C(=O)N[C@H](CCCNC(=N)N)C(=O)N[C@@H](Cc1ccc(-c2ccccc2)cc1)C(=O)NCC(N)=O [Compound 1, Dmt-D-Arg-Phe(4-phenyl)-Gly-NH2] (H-[Dmt][dR][Bip]G-NH2) |  |  |  |  | Functional character in GPI assay [3]: μ-opioid antagonism
Cc1cc(O)cc(C)c1C[C@H](N)C(=O)N[C@H](CCCNC(=N)N)C(=O)N[C@@H](Cc1ccc(-c2ccsc2)cc1)C(=O)NCC(N)=O [Compound 4, Dmt-D-Arg-Phe(4-(3-thienyl))-Gly-NH2] |  |  |  |  | Functional character in GPI assay [3]: μ-opioid antagonism
Cc1cc(O)cc(C)c1C[C@H](N)C(=O)N[C@H](C)C(=O)N[C@@H](Cc1ccccc1-c1ccsc1)C(=O)NCC(N)=O [Compound 16, Dmt-D-Ala-Phe(2-(3-thienyl))-Gly-NH2] |  |  |  |  | MOP IC50 [4]: poor affinity for MOP
B1 | 3.47 | 20.2 | 0.54 | 6.99 | 
B2 |  | 309 | 5.04 |  | IC20 (partial agonist) in the mouse vas deferens (MVD) assay [8]: 3960 nM
B3 | 30.4 | 601 | 1.03 |  | IC35 (partial agonist) in the mouse vas deferens (MVD) assay [8]: 52.8 nM
B4 | 1.54 | 625 | 1.45 | 2.75 | EPAC DOP EC50 (EPAC cAMP BRET-based biosensor assay) [5]: 49 nM
B5 | 24.1 | 1420 | 1.82 | 430 | 
B6 | 1.43 | 165 | 0.46 | 9.74 | 
B7 | 0.389 | 18 | 0.47 | 0.406 | EPAC DOP EC50 (EPAC cAMP BRET-based biosensor assay) [5]: 7 nM
B8 | 0.901 |  |  | 5.23 | 
B9 | 1.26 |  |  | 1.78 | EPAC DOP EC50 (EPAC cAMP BRET-based biosensor assay) [5]: 26.8 nM
B10 | 0.801 |  |  | 2.95 | 
B11 | 2.39 |  |  | 1.63 | 
B12 | 0.701 | 585 | 0.57 | 0.63 | EPAC DOP EC50 (EPAC cAMP BRET-based biosensor assay) [5]: 19.4 nM
B13 | 1.6 | 19.8 | 0.35 | 2.6 | 
B14 | 1.18 | 8 | 0.25 | 2.81 | 
B15 | 0.641 |  |  | 0.689 | 
B16 | 2.26 |  |  | 0.316 | EPAC DOP EC50 (EPAC cAMP BRET-based biosensor assay) [5]: 1.13 nM
B17 |  | 42.3 | 7.08 |  | IC20 (partial agonist) in the mouse vas deferens (MVD) assay [8]: 3090 nM
B18 | 61.7 | 269 | 0.85 |  | IC40 (partial agonist) in the mouse vas deferens (MVD) assay [8]: 117 nM
